B1: Zinc finger protein GLI1 (Homo sapiens), P08151 (parent)
chain: MFNSMTPPPISSYGEPCCLRPLPSQGAPSVGTEGLSGPPFCHQANLMSGPHSYGPARETNSCTEGPLFSSPRSAVKLTKKRALSISPLSDASLDLQTVIRTSPSSLVAFINSRCTSPGGSYGHLSIGTMSPSLGFPAQMNHQKGPSPSFGVQPCGPHDSARGGMIPHPQSRGPFPTCQLKSELDMLVGKCREEPLEGDMSSPNSTGIQDPLLGMLDGREDLEREEKREPESVYETDCRWDGCSQEFDSQEQLVHHINSEHIHGERKEFVCHWGGCSRELRPFKAQYMLVVHMRRHTGEKPHKCTFEGCRKSYSRLENLKTHLRSHTGEKPYMCEHEGCSKAFSNASDRAKHQNRTHSNEKPYVCKLPGCTKRYTDPSSLRKHVKTVHGPDAHVTKRHRGDGPLPRAPSISTVEPKREREGGPIREESRLTVPEGAMKPQPSPGAQSSCSSDHSPAGSAANTDSGVEMTGNAGGSTEDLSSLDEGPCIAGTGLSTLRRLENLRLDQLHQLRPIGTRGLKLPSLSHTGTTVSRRVGPPVSLERRSSSSSSISSAYTVSRRSSLASPFPPGSPPENGASSLPGLMPAQHYLLRARYASARGGGTSPTAASSLDRIGGLPMPPWRSRAEYPGYNPNAGVTRRASDPAQAADRPAPARVQRFKSLGCVHTPPTVAGGGQNFDPYLPTSVYSPQPPSITENAAMDARGLQEEPEVGTSMVGSGLNPYMDFPPTDTLGYGGPEGAAAEPYGARGPGSLPLGPGPPTNYGPNPCPQQASYPDPTQETWGEFPSHSGLYPGPKALGGTYSQCPRLEHYGQVQVKPEQGCPVGSDSTGLAPCLNAHPSEGPPHPQPLFSHYPQPSPPQYLQSGPYTQPPPDYLPSEPRPCLDFDSPTHSTGQLKAQLVCNYVQSQQELLWEGGGREDAPAQEPSYQSPKFLGGSQVSPSRAKAPVNTYGPGFGPNLPNHKSGSYPTPSPCHENFVVGANRASHRAAAPPRLLPPLPTCYGPLKVGGTNPSCGHPEVGRLGGGPALYPPPEGQVCNPLDSLDLDNTQLDFVAILDEPQGLSPPPSHDQRGSSGHTPPPSGPPNMAVGNMSVLLRSLPGETEFLNSSA

Variants of: B1
Details: with itch_human ITCH

effect of a mutation on the interaction | Variant
disrupting interaction | Y859F;Y872F;S1060A
